Test results as given in US12698507B2, “Methods and compositions for conferring and/or enhancing herbicide tolerance using protoporphyrinogen IX oxidase of various cyanobacteria or variant thereof” (FarmHannong Co., Ltd., priority 2019, dated 2026).
Where a chain is given by its changes, count along the chain named. Names may count otherwise.

B1: CyPPO19 R89A + V305M + F360T: variant of CyPPO19 PPO protein (SEQ ID NO: 1) (protein)
chain: MSEVDVAIVGGGLSGLSLAWRLQQSAPQYSVVLLEASDRLGGNITTQTAEGFVWELGPNSFAPTPALLQLIAEVGLQSELIRGDRHLPAYIYWRGQLYPLQPTRPLALATSNLLSPWGKVRAALGALGFVPPYLGSGDESVNSFFRRHLGQEVAERLVAPFVSGVYAGDPQQLSAAAAFRRIAQLEKLGGGLIAGALHLRRQQAPKPKPPTSVQMRPGELGSFKEGLAALPRAIAQQLKAPIHLQTPVQEITPDPKGGYLLRSGEQTWRARSVVLATPAYQTAELVAPFQPAIARVLATIPYPTMACVVLAYPAGLGRSVRPGFGVLIPRSQGIRTLGTIWSSCLFPQRTPAGWQVFTSTIGGATDPDLASLSEEAIVQQVQQDLNRLLDLPAAKARLLGMKVWRRAIPQYMVGYPEQWQQVTHALSQTPGLFLCSNYAEGVALGDRVEHGNRTAAAVAAYLSGGQP
modifications: Synthetic_PPO of Thermosynechococcus elongatus PKUAC-SCTE542 (comprising GenBank No. CP032152.1)
B2: CyPPO19 R89A + I408R + F360L: variant of CyPPO19 PPO protein (SEQ ID NO: 1) (protein)
chain: B1 chain with M305V, T360L, I408R
modifications: Synthetic_PPO of Thermosynechococcus elongatus PKUAC-SCTE542 (comprising GenBank No. CP032152.1)
B3: CyPPO19 R89A + L327T + F360T: variant of CyPPO19 PPO protein (SEQ ID NO: 1) (protein)
chain: B1 chain with M305V, L327T
modifications: Synthetic_PPO of Thermosynechococcus elongatus PKUAC-SCTE542 (comprising GenBank No. CP032152.1)
B4: CyPPO19 R89A + I408W + F360V: variant of CyPPO19 PPO protein (SEQ ID NO: 1) (protein)
chain: B1 chain with M305V, T360V, I408W
modifications: Synthetic_PPO of Thermosynechococcus elongatus PKUAC-SCTE542 (comprising GenBank No. CP032152.1)
B5: CyPPO19 R89A + I408R + F360M: variant of CyPPO19 PPO protein (SEQ ID NO: 1) (protein)
chain: B1 chain with M305V, T360M, I408R
modifications: Synthetic_PPO of Thermosynechococcus elongatus PKUAC-SCTE542 (comprising GenBank No. CP032152.1)
B6: CyPPO19 R89A + L327T + F360M: variant of CyPPO19 PPO protein (SEQ ID NO: 1) (protein)
chain: B1 chain with M305V, L327T, T360M
modifications: Synthetic_PPO of Thermosynechococcus elongatus PKUAC-SCTE542 (comprising GenBank No. CP032152.1)
B7: CyPPO19 R89A + L327T + F360I: variant of CyPPO19 PPO protein (SEQ ID NO: 1) (protein)
chain: B1 chain with M305V, L327T, T360I
modifications: Synthetic_PPO of Thermosynechococcus elongatus PKUAC-SCTE542 (comprising GenBank No. CP032152.1)
B8: CyPPO19 V165S + A167I + F360M: variant of CyPPO19 PPO protein (SEQ ID NO: 1) (protein)
chain: B1 chain with A89R, V165S, A167I, M305V, T360M
modifications: Synthetic_PPO of Thermosynechococcus elongatus PKUAC-SCTE542 (comprising GenBank No. CP032152.1)

Each molecule was assayed on PPO-deficient BT3 E. coli (ΔPPO) (assay: PPO-inhibiting herbicide tolerance test of PPO variants in E. coli (growth on herbicide-containing LB agar)). Details: CyPPO19 variants in BT3 (ΔPPO) E. coli; LB agar with 0 to 2,000 μM herbicide, 37° C., dark, 16-20 hours.
Assay type: cell-based
Description: To enhance the PPO-inhibiting herbicide resistance of CyPPO19 and CyPPO18, PPO variant genes of the above example 2 were constructed. They were transformed to BT3 (ΔPPO) strain which is deficient of PPO activity and cultured in LB media with PPO-inhibiting herbicide, thereby examining whether growth of transformed BT3 was not inhibited.
BT3 competent cells were transformed with the pET303-CyPPO19 (wild type), pET303-CyPPO18 (wild type) plasmids, and those with a mutation(s) constructed (refer to example 2) via heat shock method, and were cultured in LB agar media containing ampicillin.
Single colony transformed with each CyPPO gene was cultured in 3 mL of LB broth (LPSS) containing ampicillin for more than 12 hours, and then was subcultured in LB broth until absorbance (OD600) reached 0.5 to 1. Then, it was diluted with LB broth to OD600=0.5. Again, the diluted solution was serially diluted 4 times by a factor of one tenth.
The LB agar media (LB 25 g/L, Bacto agar 12 g/L) containing ampicillin (100 μg/mL) and 0 to 2,000 μM of various herbicides were prepared. Herbicide solution stocks were all prepared in DMSO.
Then, 10 μL of each diluted solution of E. coli was dropped on the plate and cultured at 37° C. under dark for 16-20 hours. PPO-inhibiting herbicide resistance was evaluated with the extent of E. coli growth containing each gene was observed.
The extent of herbicide resistance was evaluated by the relative growth of variants to that of wild type, and listed in Tables 9 and 10 and FIGS. 3 to 32.
In Tables 9 and 10, the tolerance level of variants showing equivalent resistance to wild type was presented as ‘−’, and was done as ‘+’ per each 10-fold resistance until ‘+++++’ as maximal resistance.
FIGS. 3 to 30 and FIGS. 31 and 32 show the transformed E. coli growth result of CyPPO19 WT and its variants and CyPPO18 WT and its variants, respectively. The concentrations of herbicides were written above the photographs of tolerance test. A 10-fold dilution series of spots were shown from OD600=0.5 of the leftmost spot to OD600=0.00005 of the rightmost one.
For B1, the “tolerance level relative to wild type, Carfentrazone” value was “++ (‘+’ per each 10-fold resistance)”, the “tolerance level relative to wild type, Flumioxazin” value was “+++++ (until ‘+++++’ as maximal resistance)” and the “tolerance level relative to wild type, Fomesafen” value was “+++ (‘+’ per each 10-fold resistance)”. The “tolerance level relative to wild type, Oxyfluorfen” value was “+++ (‘+’ per each 10-fold resistance)”, the “tolerance level relative to wild type, Saflufenacil” value was “+++++ (until ‘+++++’ as maximal resistance)” and the “tolerance level relative to wild type, Sulfentrazone” value was “+++++ (until ‘+++++’ as maximal resistance)”. The “tolerance level relative to wild type, Tiafenacil” value was “+++++ (until ‘+++++’ as maximal resistance)”. For B2, the “tolerance level relative to wild type, Carfentrazone” value was “+ (‘+’ per each 10-fold resistance)”, the “tolerance level relative to wild type, Flumioxazin” value was “+++ (‘+’ per each 10-fold resistance)” and the “tolerance level relative to wild type, Fomesafen” value was “+ (‘+’ per each 10-fold resistance)”. The “tolerance level relative to wild type, Oxyfluorfen” value was “+ (‘+’ per each 10-fold resistance)”, the “tolerance level relative to wild type, Saflufenacil” value was “+++ (‘+’ per each 10-fold resistance)” and the “tolerance level relative to wild type, Sulfentrazone” value was “++ (‘+’ per each 10-fold resistance)”. For the same molecule, the “tolerance level relative to wild type, Tiafenacil” value was “+++ (‘+’ per each 10-fold resistance)”. In the case of B3, the “tolerance level relative to wild type, Carfentrazone” value is reported as “+ (‘+’ per each 10-fold resistance)”, the “tolerance level relative to wild type, Flumioxazin” value is reported as “+++++ (until ‘+++++’ as maximal resistance)” and the “tolerance level relative to wild type, Fomesafen” value is reported as “+++++ (until ‘+++++’ as maximal resistance)”. The “tolerance level relative to wild type, Oxyfluorfen” value was “+++ (‘+’ per each 10-fold resistance)”, the “tolerance level relative to wild type, Saflufenacil” value was “+++++ (until ‘+++++’ as maximal resistance)” and the “tolerance level relative to wild type, Sulfentrazone” value was “+++++ (until ‘+++++’ as maximal resistance)”. For the same molecule, the “tolerance level relative to wild type, Tiafenacil” value was “+++++ (until ‘+++++’ as maximal resistance)”. With B4 the “tolerance level relative to wild type, Carfentrazone” value was “+ (‘+’ per each 10-fold resistance)”, the “tolerance level relative to wild type, Flumioxazin” value was “+++++ (until ‘+++++’ as maximal resistance)” and the “tolerance level relative to wild type, Fomesafen” value was “+++++ (until ‘+++++’ as maximal resistance)”. The “tolerance level relative to wild type, Oxyfluorfen” value was “+++ (‘+’ per each 10-fold resistance)”, the “tolerance level relative to wild type, Saflufenacil” value was “+++++ (until ‘+++++’ as maximal resistance)” and the “tolerance level relative to wild type, Sulfentrazone” value was “+++++ (until ‘+++++’ as maximal resistance)”. For the same molecule, the “tolerance level relative to wild type, Tiafenacil” value was “+++++ (until ‘+++++’ as maximal resistance)”. In the case of B5, the “tolerance level relative to wild type, Carfentrazone” value is reported as “+ (‘+’ per each 10-fold resistance)”, the “tolerance level relative to wild type, Flumioxazin” value is reported as “++++ (‘+’ per each 10-fold resistance)” and the “tolerance level relative to wild type, Fomesafen” value is reported as “+++ (‘+’ per each 10-fold resistance)”. For the same molecule, the “tolerance level relative to wild type, Oxyfluorfen” value was “++ (‘+’ per each 10-fold resistance)”, the “tolerance level relative to wild type, Saflufenacil” value was “++++ (‘+’ per each 10-fold resistance)” and the “tolerance level relative to wild type, Sulfentrazone” value was “+++ (‘+’ per each 10-fold resistance)”. The “tolerance level relative to wild type, Tiafenacil” value was “+++ (‘+’ per each 10-fold resistance)”. B6 was tested, and the “tolerance level relative to wild type, Carfentrazone” value was “+ (‘+’ per each 10-fold resistance)”, the “tolerance level relative to wild type, Flumioxazin” value was “++++ (‘+’ per each 10-fold resistance)” and the “tolerance level relative to wild type, Fomesafen” value was “+++ (‘+’ per each 10-fold resistance)”. The “tolerance level relative to wild type, Oxyfluorfen” value was “++ (‘+’ per each 10-fold resistance)”, the “tolerance level relative to wild type, Saflufenacil” value was “++ (‘+’ per each 10-fold resistance)” and the “tolerance level relative to wild type, Sulfentrazone” value was “++ (‘+’ per each 10-fold resistance)”. The “tolerance level relative to wild type, Tiafenacil” value was “+++ (‘+’ per each 10-fold resistance)”. For B7, the “tolerance level relative to wild type, Carfentrazone” value was “+ (‘+’ per each 10-fold resistance)”, the “tolerance level relative to wild type, Flumioxazin” value was “++++ (‘+’ per each 10-fold resistance)” and the “tolerance level relative to wild type, Fomesafen” value was “++ (‘+’ per each 10-fold resistance)”. For the same molecule, the “tolerance level relative to wild type, Oxyfluorfen” value was “+ (‘+’ per each 10-fold resistance)”, the “tolerance level relative to wild type, Saflufenacil” value was “++ (‘+’ per each 10-fold resistance)” and the “tolerance level relative to wild type, Sulfentrazone” value was “+++ (‘+’ per each 10-fold resistance)”. The “tolerance level relative to wild type, Tiafenacil” value was “++++ (‘+’ per each 10-fold resistance)”. With B8 the “tolerance level relative to wild type, Carfentrazone” value was “+ (‘+’ per each 10-fold resistance)”, the “tolerance level relative to wild type, Flumioxazin” value was “+++++ (until ‘+++++’ as maximal resistance)” and the “tolerance level relative to wild type, Fomesafen” value was “++ (‘+’ per each 10-fold resistance)”. The “tolerance level relative to wild type, Oxyfluorfen” value was “++ (‘+’ per each 10-fold resistance)”, the “tolerance level relative to wild type, Saflufenacil” value was “++++ (‘+’ per each 10-fold resistance)” and the “tolerance level relative to wild type, Sulfentrazone” value was “+++ (‘+’ per each 10-fold resistance)”. For the same molecule, the “tolerance level relative to wild type, Tiafenacil” value was “+++++ (until ‘+++++’ as maximal resistance)”.
